Experimental findings from US7510715 (US Dept. of Health and Human Services, dated 2009) are described below.

The chains are these.
B3: human CCR5 on cells (CEM.NKR-CCR5 transfectants; PM1 T cells; PBMCs; macrophages) (receptor)
chain: not shown
notes: whole, on cells; also called hCCR5

Assay [1] addresses B3. As to the kind of experiment: saturation binding of 125I-labeled human MIP-1β to CEM.NKR-CCR5 cells, 90 minutes at 4° C.
Protocol: The bound fraction was then measured and the dissociation constant for ligand binding calculated using a Graph Pad Prism software program (Mackiev, Cupertino, Calif.). […] Cells were then washed and the bound fraction measured radioactively.
Assay [2] deals with B3. The assay is described as follows: saturation binding of 125I-C-18 to CEM.NKR-CCR5 cells, 90 minutes at 4° C.
Assay [3] concerns the target T1, human cyclophilin A (human, UniProt P62937 1-165).
T1 construct: also called recombinant human cyclophilin
As to the kind of experiment: competition with 125I-C-18 on CEM.NKR.CCR5 cells (method in paragraph 111).

T1 sequence (P62937 whole entry): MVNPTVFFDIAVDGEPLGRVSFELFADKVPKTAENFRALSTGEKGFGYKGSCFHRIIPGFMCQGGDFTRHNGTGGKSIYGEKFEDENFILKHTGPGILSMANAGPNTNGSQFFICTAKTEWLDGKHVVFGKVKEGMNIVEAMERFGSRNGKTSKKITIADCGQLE

B1: human macrophage inflammatory protein 1β (MIP-1β) (ligand, UniProt P13236 24-92, looked up)
chain: APMGSDPPTACCFSYTARKLPRNFVVDYYETSSLCSQPAVVFQTKRSKQVCADPSESWVQEYVYDLELN
notes: also called MIP-1B; human MIP-1 B
Take B1: in assay [1], the Kd was 0.559 nM.

B2: Toxoplasma gondii cyclophilin-18 (C-18), recombinant (ligand)
chain: not shown
As for B2, in assay [2], the Kd was determined as 3.65 nM.
As to B3, in assay [3], the binding result is recorded as “no binding”.
